Source: publication PMC11574045, “A cofactor-induced repressive type of transcription factor condensation can be induced by synthetic peptides to suppress tumorigenesis” (The EMBO Journal, 2024)

B1: LEF1 (protein, UniProt Q9UJU2 1-399, looked up)
Lymphoid enhancer-binding …: MPQLSGGGGGGGGDPELCATDEMIPFKDEGDPQKEKIFAEISHPEEEGDLADIKSSLVNESEIIPASNGHEVARQAQTSQEPYHDKAREHPDDGKHPDGGLYNKGPSYSSYSGYIMMPNMNNDPYMSNGSLSPPIPRTSNKVPVVQPSHAVHPLTPLITYSDEHFSPGSHPSHIPSDVNSKQGMSRHPPAPDIPTFYPLSPGGVGQITPPLGWQGQPVYPITGGFRQPYPSSLSVDTSMSRFSHHMIPGPPGPHTTGIPHPAIVTPQVKQEHPHTDSDLMHVKPQHEQRKEQEPKRPHIKKPLNAFMLYMKEMRANVVAECTLKESAAINQILGRRWHALSREEQAKYYELARKERQLHMQLYPGWSARDNYGKKKKRKREKLQESASGTGPRMTAAYI
B2: LASS6 (protein, UniProt Q6ZMG9 1-384, looked up)
Ceramide synthase 6: MAGILAWFWNERFWLPHNVTWADLKNTEEATFPQAEDLYLAFPLAFCIFMVRLIFERFVAKPCAIALNIQANGPQIAPPNAILEKVFTAITKHPDEKRLEGLSKQLDWDVRSIQRWFRQRRNQEKPSTLTRFCESMWRFSFYLYVFTYGVRFLKKTPWLWNTRHCWYNYPYQPLTTDLHYYYILELSFYWSLMFSQFTDIKRKDFGIMFLHHLVSIFLITFSYVNNMARVGTLVLCLHDSADALLEAAKMANYAKFQKMCDLLFVMFAVVFITTRLGIFPLWVLNTTLFESWEIVGPYPSWWVFNLLLLLVQGLNCFWSYLIVKIACKAVSRGKVSKDDRSDIESSSDEEDSEPPGKNPHTATTTNGTSGTNGYLLTGSCSMDD
B3: LASS4 (protein, UniProt Q9HA82 1-394, looked up)
Ceramide synthase 4: MLSSFNEWFWQDRFWLPPNVTWTELEDRDGRVYPHPQDLLAALPLALVLLAMRLAFERFIGLPLSRWLGVRDQTRRQVKPNATLEKHFLTEGHRPKEPQLSLLAAQCGLTLQQTQRWFRRRRNQDRPQLTKKFCEASWRFLFYLSSFVGGLSVLYHESWLWAPVMCWDRYPNQTLKPSLYWWYLLELGFYLSLLIRLPFDVKRKDFKEQVIHHFVAVILMTFSYSANLLRIGSLVLLLHDSSDYLLEACKMVNYMQYQQVCDALFLIFSFVFFYTRLVLFPTQILYTTYYESISNRGPFFGYYFFNGLLMLLQLLHVFWSCLILRMLYSFMKKGQMEKDIRSDVEESDSSEEAAAAQEPLQLKNGAAGGPRPAPTDGPRSRVAGRLTNRHTTAT
B4: KLRG1 (protein, UniProt Q96E93 1-195, looked up)
Killer cell lectin-like …: MTDSVIYSMLELPTATQAQNDYGPQQKSSSSRPSCSCLVAIALGLLTAVLLSVLLYQWILCQGSNYSTCASCPSCPDRWMKYGNHCYYFSVEEKDWNSSLEFCLARDSHLLVITDNQEMSLLQVFLSEAFCWIGLRNNSGWRWEDGSPLNFSRISSNSFVQTCGAINKNGLQASSCEVPLHWVCKKCPFADQALF
B5: LHX2 (protein, UniProt P50458 1-406, looked up)
LIM/homeobox protein Lhx2: MLFHSLSGPEVHGVIDEMDRRAKSEAPAISSAIDRGDTETTMPSISSDRAALCAGCGGKISDRYYLLAVDKQWHMRCLKCCECKLNLESELTCFSKDGSIYCKEDYYRRFSVQRCARCHLGISASEMVMRARDLVYHLNCFTCTTCNKMLTTGDHFGMKDSLVYCRLHFEALLQGEYPAHFNHADVAAAAAAAAAAKSAGLGAAGANPLGLPYYNGVGTVQKGRPRKRKSPGPGADLAAYNAALSCNENDAEHLDRDQPYPSSQKTKRMRTSFKHHQLRTMKSYFAINHNPDAKDLKQLAQKTGLTKRVLQVWFQNARAKFRRNLLRQENTGVDKSTDAALQTGTPSGPASELSNASLSPSSTPTTLTDLTSPTLPTVTSVLTSVPGNLEGHEPHSPSQTTLTNLF
B6: LIN28 (protein, UniProt Q9H9Z2 2-209, looked up)
Protein lin-28 homolog A: GSVSNQQFAGGCAKAAEEAPEEAPEDAARAADEPQLLHGAGICKWFNVRMGFGFLSMTARAGVALDPPVDVFVHQSKLHMEGFRSLKEGEAVEFTFKKSAKGLESIRVTGPGGVFCIGSERRPKGKSMQKRRSKGDRCYNCGGLDHHAKECKLPPQPKKCHFCQSISHMVASCPLKAQQGPSAQGKPTYFREEEEEIHSPTLLPEAQN
B7: LBX2 (protein, UniProt Q9WUN8 1-195, looked up)
Transcription factor LBX2: MNSVHQRRTPFSIADILGPSMVPEAPSAPQLPEAGPDPASPLCALEELASKTFLGHSPRATPQPSEGRAAPEAPPGPGAGVRRRRKSRTAFTAQQVLELERRFVFQKYLAPSERDGLAARLGLANAQVVTWFQNRRAKLKRDVEEMRADVASLCGLSPGVLCYPALPDSTSSPDPGPSGPDSEPNLSDEEIQVDD
B8: LHX3 (protein, UniProt Q9UBR4 1-397, looked up)
LIM/homeobox protein Lhx3: MLLETGLERDRARPGAAAVCTLGGTREIPLCAGCDQHILDRFILKALDRHWHSKCLKCSDCHTPLAERCFSRGESVYCKDDFFKRFGTKCAACQLGIPPTQVVRRAQDFVYHLHCFACVVCKRQLATGDEFYLMEDSRLVCKADYETAKQREAEATAKRPRTTITAKQLETLKSAYNTSPKPARHVREQLSSETGLDMRVVQVWFQNRRAKEKRLKKDAGRQRWGQYFRNMKRSRGGSKSDKDSVQEGQDSDAEVSFPDEPSLAEMGPANGLYGSLGEPTQALGRPSGALGNFSLEHGGLAGPEQYRELRPGSPYGVPPSPAAPQSLPGPQPLLSSLVYPDTSLGLVPSGAPGGPPPMRVLAGNGPSSDLSTGSSGGYPDFPASPASWLDEVDHAQF
B9: LMO1 (protein, UniProt P25800 1-156, looked up)
Rhombotin-1: MMVLDKEDGVPMLSVQPKGKQKGCAGCNRKIKDRYLLKALDKYWHEDCLKCACCDCRLGEVGSTLYTKANLILCRRDYLRLFGTTGNCAACSKLIPAFEMVMRARDNVYHLDCFACQLCNQRFCVGDKFFLKNNMILCQMDYEEGQLNGTFESQVQ
B10: LASS3 (protein, UniProt Q8IU89 1-383, looked up)
Ceramide synthase 3: MFWTFKEWFWLERFWLPPTIKWSDLEDHDGLVFVKPSHLYVTIPYAFLLLIIRRVFEKFVASPLAKSFGIKETVRKVTPNTVLENFFKHSTRQPLQTDIYGLAKKCNLTERQVERWFRSRRNQERPSRLKKFQEACWRFAFYLMITVAGIAFLYDKPWLYDLWEVWNGYPKQPLLPSQYWYYILEMSFYWSLLFRLGFDVKRKDFLAHIIHHLAAISLMSFSWCANYIRSGTLVMIVHDVADIWLESAKMFSYAGWTQTCNTLFFIFSTIFFISRLIVFPFWILYCTLILPMYHLEPFFSYIFLNLQLMILQVLHLYWGYYILKMLNRCIFMKSIQDVRSDDEDYEEEEEEEEEEATKGKEMDCLKNGLRAERHLIPNGQHGH
B11: LITAF (protein, UniProt Q99732 1-161, looked up)
Lipopolysaccharide-induced …: MSVPGPYQAATGPSSAPSAPPSYEETVAVNSYYPTPPAPMPGPTTGLVTGPDGKGMNPPSYYTQPAPIPNNNPITVQTVYVQHPITFLDRPIQMCCPSCNKMIVSQLSYNAGALTWLSCGSLCLLGCIAGCCFIPFCVDALQDVDHYCPNCRALLGTYKRL
B12: ARRB1 (protein, UniProt P49407 1-418, looked up)
Beta-arrestin-1: MGDKGTRVFKKASPNGKLTVYLGKRDFVDHIDLVDPVDGVVLVDPEYLKERRVYVTLTCAFRYGREDLDVLGLTFRKDLFVANVQSFPPAPEDKKPLTRLQERLIKKLGEHAYPFTFEIPPNLPCSVTLQPGPEDTGKACGVDYEVKAFCAENLEEKIHKRNSVRLVIRKVQYAPERPGPQPTAETTRQFLMSDKPLHLEASLDKEIYYHGEPISVNVHVTNNTNKTVKKIKISVRQYADICLFNTAQYKCPVAMEEADDTVAPSSTFCKVYTLTPFLANNREKRGLALDGKLKHEDTNLASSTLLREGANREILGIIVSYKVKVKLVVSRGGLLGDLASSDVAVELPFTLMHPKPKEEPPHREVPENETPVDTNLIELDTNDDDIVFEDFARQRLKGMKDDKEEEEDGTGSPQLNNR
B13: LMCD1 (protein, UniProt Q9NZU5 1-365, looked up)
LIM and cysteine-rich domains …: MAKVAKDLNPGVKKMSLGQLQSARGVACLGCKGTCSGFEPHSWRKICKSCKCSQEDHCLTSDLEDDRKIGRLLMDSKYSTLTARVKGGDGIRIYKRNRMIMTNPIATGKDPTFDTITYEWAPPGVTQKLGLQYMELIPKEKQPVTGTEGAFYRRRQLMHQLPIYDQDPSRCRGLLENELKLMEEFVKQYKSEALGVGEVALPGQGGLPKEEGKQQEKPEGAETTAATTNGSLSDPSKEVEYVCELCKGAAPPDSPVVYSDRAGYNKQWHPTCFVCAKCSEPLVDLIYFWKDGAPWCGRHYCESLRPRCSGCDEIIFAEDYQRVEDLAWHRKHFVCEGCEQLLSGRAYIVTKGQLLCPTCSKSKRS
B14: LIN28B (protein, UniProt Q6ZN17 1-250, looked up)
Protein lin-28 homolog B: MAEGGASKGGGEEPGKLPEPAEEESQVLRGTGHCKWFNVRMGFGFISMINREGSPLDIPVDVFVHQSKLFMEGFRSLKEGEPVEFTFKKSSKGLESIRVTGPGGSPCLGSERRPKGKTLQKRKPKGDRCYNCGGLDHHAKECSLPPQPKKCHYCQSIMHMVANCPHKNVAQPPASSQGRQEAESQPCTSTLPREVGGGHGCTSPPFPQEARAEISERSGRSPQEASSTKSSIAPEEQSKKGPSVQKRKKT
B15: JUP (protein, UniProt P14923 1-745, looked up)
Junction plakoglobin: MEVMNLMEQPIKVTEWQQTYTYDSGIHSGANTCVPSVSSKGIMEEDEACGRQYTLKKTTTYTQGVPPSQGDLEYQMSTTARAKRVREAMCPGVSGEDSSLLLATQVEGQATNLQRLAEPSQLLKSAIVHLINYQDDAELATRALPELTKLLNDEDPVVVTKAAMIVNQLSKKEASRRALMGSPQLVAAVVRTMQNTSDLDTARCTTSILHNLSHHREGLLAIFKSGGIPALVRMLSSPVESVLFYAITTLHNLLLYQEGAKMAVRLADGLQKMVPLLNKNNPKFLAITTDCLQLLAYGNQESKLIILANGGPQALVQIMRNYSYEKLLWTTSRVLKVLSVCPSNKPAIVEAGGMQALGKHLTSNSPRLVQNCLWTLRNLSDVATKQEGLESVLKILVNQLSVDDVNVLTCATGTLSNLTCNNSKNKTLVTQNSGVEALIHAILRAGDKDDITEPAVCALRHLTSRHPEAEMAQNSVRLNYGIPAIVKLLNQPNQWPLVKATIGLIRNLALCPANHAPLQEAAVIPRLVQLLVKAHQDAQRHVAAGTQQPYTDGVRMEEIVEGCTGALHILARDPMNRMEIFRLNTIPLFVQLLYSSVENIQRVAAGVLCELAQDKEAADAIDAEGASAPLMELLHSRNEGTATYAAAVLFRISEDKNPDYRKRVSVELTNSLFKHDPAAWEAAQSMIPINEPYGDDMDATYRPMYSSDVPLDPLEMHMDMDGDYPIDTYSDGLRPPYPTADHMLA

System: HEK293FT cells transfected with TF library
Test: Screening of TF condensates based on fluorescent puncta
Assay type: cell-based
Conditions: Figure 1B numerical data; TF library screen, one value per transcriptional factor
In short: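 TF plasmids (final 1.6 μg/ml) reverse-transfected with PEI (4.8 μg/ml) into HEK293FT cells; after 60 h, cells cultured ±glucose for 12 h, fixed in 4% PFA and immunostained for Flag or GAL4 tags with Alexa 488 secondaries. Puncta scored by automated imaging of 50 random fields per well.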

Row | Molecule | Z score of condensed fraction
1 | B1 | 0.2503
2 | B2 | -0.6196
3 | B3 | -0.3767
4 | B4 | 2.376
5 | B5 | 0.8007
6 | B6 | -0.1683
7 | B7 | -0.9162
8 | B8 | -0.2379
9 | B9 | 0.976
10 | B10 | -1.783
11 | B11 | 0.004705
12 | B12 | 0.4258
13 | B13 | 2.397
14 | B14 | -0.9223
15 | B15 | -0.6246
